{"source": "paper PMC8392014", "molecular_target": "RSV phosphoprotein fragment P_(127–163) (respiratory syncytial virus (RSV)) (UniProt P12579)", "assay": "SAXS; SEC-SAXS, 293 K, 200 µM P127-163 in 20 mM Na phosphate pH 6.5, 100 mM NaCl; scattering curve fitted with the NMR structure on the FoXs server", "data": [{"substance": "RSV phosphoprotein fragment P_(127–163) (from UniProt P12579 127-163) (domain or fragment)", "values": [{"measurement": "stoichiometry N", "result": 4}]}]}
